Data: patent US20190328766, “COMPOSITIONS AND METHODS FOR SUPPRESSING MSUT2” (United States Government As Represented By The Department …, published 2019)

Assays:
[1] = biological target: T1, MSUT2 (ZC3H14) CCCH zinc finger domain (Homo sapiens, UniProt Q6PJT7 Q6PJT7:595-719); test: SPR; Biacore T200, biotin capture, from kinetics at 0.6-1 uM protein; details: tags: GST fusion (pGEX6P-1), E. coli BL21(DE3), benzonase treated; label: 5' BiotinTEG
T1 chain: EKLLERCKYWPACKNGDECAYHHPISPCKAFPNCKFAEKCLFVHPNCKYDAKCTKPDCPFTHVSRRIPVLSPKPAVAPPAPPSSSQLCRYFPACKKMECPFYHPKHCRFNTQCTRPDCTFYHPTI
Description: (§1) SPR experiments were conducted on a Biacore T200 using the Biotin Capture Kit Series S following the manufacturer's instructions (GE). Biotin capture reagent was applied to the sensor chip at a flow rate of 2 μl/minute for 300 seconds. 1 nM biotinylated RNA (BiotinTEG-[…]; SEQ ID NO: 25) was captured at a flow rate of 10 μl/minute for 180 seconds. Samples were flowed across the sensor chip at 50 μl/minute for 120 seconds and the chip was regenerated for 120 seconds at a flow rate of 10 μl/minute.

PABPN1 = biological target: T2, PABPN1 (Homo sapiens, UniProt Q86U42 Q86U42:1-306); test: as above; details: tags: GST fusion (pGEX6P-1), E. coli BL21(DE3), benzonase treated; label: 5' BiotinTEG
T2 sequence: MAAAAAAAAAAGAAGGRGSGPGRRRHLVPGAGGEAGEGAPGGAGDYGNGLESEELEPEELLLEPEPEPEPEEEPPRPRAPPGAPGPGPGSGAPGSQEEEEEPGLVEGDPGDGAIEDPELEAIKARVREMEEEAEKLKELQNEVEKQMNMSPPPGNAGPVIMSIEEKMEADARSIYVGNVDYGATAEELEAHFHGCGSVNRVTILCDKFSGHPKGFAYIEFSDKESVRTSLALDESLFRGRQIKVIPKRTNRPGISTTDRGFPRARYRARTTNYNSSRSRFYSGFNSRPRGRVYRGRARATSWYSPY
Description: as §1

GST-MSUT2 [2] = biological target: T3, GST-MSUT2 (UniProt Q6PJT7 Q6PJT7:595-719); test: AlphaScreen; 25 mM HEPES, 100 mM NaCl, 0.04% casein, 0.2% Triton X-100, pH 7.4, room temp; inhibited by ebselen; details: tags: GST fusion; label: 5' TEG-Biotin (IDT)
T3 sequence: T1 chain
Description: The steps and set up for performing the ALPHA assay for MSUT2 binding to polyA are as follows: [0229] 1. Dilutions are in assay buffer (1×PAMA final concentration). [0230] 2. Scale is for 96 well assay in PE […] ½ area plate (total volume/well is 50 μL). [0231] 3. Assays set up in low light conditions [0232] 4. Add 20 μL of diluted donor bead (10 ug/mL) to well bringing well volume to 20 μL [0233] 5. Add 10 μL diluted biotin RNA (15 nM)) bringing well volume to 30 μL [0234] 6. Add 10 μL diluted GST-MSUT2 Protein (125 nM)) bringing well volume to 40 μL [0235] 7. Incubate at room temp for 30 minutes in the dark [0236] 8. […] 9. Incubate at room temp for 60 minutes in the dark [0238] 10. Read Plate using standard AlphaAssay settings on Perkin Elmer EnSpire® Alpha microplate reader

GST-MSUT2 [3] = biological target: T3, GST-MSUT2; test: FP; dose-dependent polarization increase; details: tags: GST fusion; label: fluorescein (FAM)

AAAAAAAAAAAAAAA (ssRNA) [biotin-poly(A)15]
Kd [1]: 60 nM
Kd (PABPN1): 237 nM

AAAAAAAAAAAAAAAAAAAA (ssRNA) [biotin-poly(A)20]
binding result (GST-MSUT2 [2]): binds

AAAAAAAAAAAAAAA (ssRNA) [FAM-PolyA15]
binding result (GST-MSUT2 [3]): binds
